Target: FANCI-Ub (mono-ubiquitinated at K523);FANCD2-Ub (mono-ubiquitinated at K561) (human;human) (UniProt Q9NVI1+Q9BXW9)
Assay: EMSA
Settings: nick

FANCI-Ub (mono-ubiquitinated at K523);FANCD2-Ub (mono-ubiquitinated at K561) (human;human), sequence (Q9NVI1 whole entry, chain 1 of 2): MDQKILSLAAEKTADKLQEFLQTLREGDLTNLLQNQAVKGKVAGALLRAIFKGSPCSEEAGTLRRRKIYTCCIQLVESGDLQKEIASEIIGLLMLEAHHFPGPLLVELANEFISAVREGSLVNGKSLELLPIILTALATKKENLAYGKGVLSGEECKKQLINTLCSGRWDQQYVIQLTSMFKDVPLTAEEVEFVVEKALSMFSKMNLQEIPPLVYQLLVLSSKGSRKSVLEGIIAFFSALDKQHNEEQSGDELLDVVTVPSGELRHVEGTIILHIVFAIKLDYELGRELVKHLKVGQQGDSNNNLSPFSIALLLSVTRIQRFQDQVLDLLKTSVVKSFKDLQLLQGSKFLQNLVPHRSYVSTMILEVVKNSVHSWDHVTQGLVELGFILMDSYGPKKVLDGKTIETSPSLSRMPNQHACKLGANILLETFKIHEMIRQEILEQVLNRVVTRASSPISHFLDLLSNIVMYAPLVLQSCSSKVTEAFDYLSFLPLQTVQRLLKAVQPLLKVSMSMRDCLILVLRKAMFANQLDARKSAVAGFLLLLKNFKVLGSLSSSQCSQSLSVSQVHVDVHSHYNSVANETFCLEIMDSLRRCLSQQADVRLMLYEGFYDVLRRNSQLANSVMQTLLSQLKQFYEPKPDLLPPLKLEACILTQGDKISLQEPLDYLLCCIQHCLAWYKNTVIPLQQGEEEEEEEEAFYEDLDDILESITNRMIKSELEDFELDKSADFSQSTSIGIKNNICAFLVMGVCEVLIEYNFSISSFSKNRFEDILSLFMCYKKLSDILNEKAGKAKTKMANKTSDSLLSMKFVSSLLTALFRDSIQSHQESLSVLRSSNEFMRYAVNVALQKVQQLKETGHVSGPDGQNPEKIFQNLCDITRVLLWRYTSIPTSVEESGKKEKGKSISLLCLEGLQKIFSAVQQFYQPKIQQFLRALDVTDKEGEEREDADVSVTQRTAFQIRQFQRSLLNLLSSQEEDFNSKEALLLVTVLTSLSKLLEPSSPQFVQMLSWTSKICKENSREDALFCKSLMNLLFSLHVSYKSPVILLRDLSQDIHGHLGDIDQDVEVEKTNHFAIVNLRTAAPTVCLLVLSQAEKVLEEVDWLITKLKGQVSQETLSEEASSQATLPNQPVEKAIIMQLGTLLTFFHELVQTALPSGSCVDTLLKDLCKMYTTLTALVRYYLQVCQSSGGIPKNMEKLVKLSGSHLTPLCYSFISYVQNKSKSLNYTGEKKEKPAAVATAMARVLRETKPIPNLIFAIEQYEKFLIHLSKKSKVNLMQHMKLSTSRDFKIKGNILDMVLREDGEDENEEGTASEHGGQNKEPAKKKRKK
FANCI-Ub (mono-ubiquitinated at K523);FANCD2-Ub (mono-ubiquitinated at K561) (human;human), sequence (Q9BXW9 whole entry, chain 2 of 2): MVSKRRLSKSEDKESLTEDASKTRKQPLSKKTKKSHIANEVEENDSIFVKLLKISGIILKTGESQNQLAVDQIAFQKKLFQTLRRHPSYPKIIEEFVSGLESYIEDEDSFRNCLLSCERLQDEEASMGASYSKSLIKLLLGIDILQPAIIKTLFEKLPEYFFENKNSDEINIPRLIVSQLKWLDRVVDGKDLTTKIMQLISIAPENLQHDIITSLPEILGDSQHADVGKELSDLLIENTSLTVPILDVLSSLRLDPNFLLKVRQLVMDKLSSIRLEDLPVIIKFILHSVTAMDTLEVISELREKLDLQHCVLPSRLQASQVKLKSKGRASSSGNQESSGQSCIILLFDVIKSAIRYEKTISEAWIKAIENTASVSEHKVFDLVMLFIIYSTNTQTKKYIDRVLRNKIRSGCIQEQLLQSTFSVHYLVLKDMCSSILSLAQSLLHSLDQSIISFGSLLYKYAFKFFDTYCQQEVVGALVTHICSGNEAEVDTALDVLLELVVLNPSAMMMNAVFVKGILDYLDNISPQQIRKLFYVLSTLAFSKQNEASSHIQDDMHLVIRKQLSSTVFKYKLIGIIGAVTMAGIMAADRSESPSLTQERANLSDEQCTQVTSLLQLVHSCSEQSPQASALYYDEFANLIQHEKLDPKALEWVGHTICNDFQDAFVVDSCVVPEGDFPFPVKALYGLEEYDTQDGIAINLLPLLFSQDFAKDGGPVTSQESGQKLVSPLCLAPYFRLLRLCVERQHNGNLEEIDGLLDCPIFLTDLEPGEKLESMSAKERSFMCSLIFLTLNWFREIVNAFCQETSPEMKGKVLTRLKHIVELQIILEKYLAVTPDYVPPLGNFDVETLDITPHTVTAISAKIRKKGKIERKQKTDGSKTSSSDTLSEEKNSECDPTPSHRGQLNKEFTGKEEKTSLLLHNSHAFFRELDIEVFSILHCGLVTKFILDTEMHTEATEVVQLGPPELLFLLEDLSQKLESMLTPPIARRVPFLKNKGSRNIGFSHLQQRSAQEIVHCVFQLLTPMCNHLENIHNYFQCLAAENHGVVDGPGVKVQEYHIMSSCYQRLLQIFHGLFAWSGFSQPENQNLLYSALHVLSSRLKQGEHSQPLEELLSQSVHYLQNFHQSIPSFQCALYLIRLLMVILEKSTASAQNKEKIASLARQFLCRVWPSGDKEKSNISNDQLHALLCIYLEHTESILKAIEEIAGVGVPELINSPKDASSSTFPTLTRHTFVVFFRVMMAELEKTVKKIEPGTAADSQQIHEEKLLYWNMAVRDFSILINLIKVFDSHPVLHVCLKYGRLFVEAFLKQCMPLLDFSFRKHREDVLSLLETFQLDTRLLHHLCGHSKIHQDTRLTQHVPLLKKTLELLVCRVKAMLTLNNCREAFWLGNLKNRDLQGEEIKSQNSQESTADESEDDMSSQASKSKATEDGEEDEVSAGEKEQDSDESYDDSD

Substance: nicked DNA, EMSA
- Kd: 0.02 µM

From doi:10.1101/854133
